According to patent publication US8143025B2, “Antibodies against vascular endothelial growth factor receptor-1” (ImClone LLC, priority 2004, dated 2012):

Tests used:
[1] = molecular target: T1, recombinant human VEGFR-I Fc (Homo sapiens, UniProt P17948); assay: ELISA-based specificity assay (Example 2A); format: binding; settings: FIG. 6A
T1 construct: soluble recombinant VEGFR-I Fc (rhuVEGFR-1 Fc) proteins were purchased from (R&D Systems Inc); purchased R&D Systems Inc
Protocol: (§1) To determine the specificity of an anti-VEGFR-1 monoclonal antibody to human VEGFR-I, purified antibodies 18F1 were tested in an ELISA-based assay. One μg/ml of recombinant human VEGFR-I Fc, mouse VEGFR-I Fc, mouse VEGFR-2 Fe, or human VEGFR-2 alkaline phosphatase was coated with PBS in a 96-well microtiter plates at 4° C. over night. After wash, the receptor coated plates were blocked with PBS containing 5% Dry Milk and 0.05% Tween 20. Serial dilutions of primary antibody 18F1 to human VEGFR-I, MF1 to mouse VEGFR-I. ICl 1 to human VEGFR-2, or DClOl to mouse VEGFR-2 were incubated in the receptor-coated plates for 30 minutes. After wash secondary anti-primary HRP conjugate antibodies was incubated in the plates for 30 minutes. Plates were washed and incubated with the substrate TMB (3,3′,5,5′-tetra-methylbenzidine) for color development. The absorbance at 450 nm was read as OD values for quantification of binding activity of antibodies. Data were analyzed using a GraphPad Prism Software.

[2] = molecular target: human VEGFR-2 alkaline phosphatase (Homo sapiens, UniProt P35968); assay: ELISA-based specificity assay (Example 2A); format: binding; settings: FIG. 6C
Sequence of human VEGFR-2 alkaline phosphatase (P35968 20-764 limits assumed): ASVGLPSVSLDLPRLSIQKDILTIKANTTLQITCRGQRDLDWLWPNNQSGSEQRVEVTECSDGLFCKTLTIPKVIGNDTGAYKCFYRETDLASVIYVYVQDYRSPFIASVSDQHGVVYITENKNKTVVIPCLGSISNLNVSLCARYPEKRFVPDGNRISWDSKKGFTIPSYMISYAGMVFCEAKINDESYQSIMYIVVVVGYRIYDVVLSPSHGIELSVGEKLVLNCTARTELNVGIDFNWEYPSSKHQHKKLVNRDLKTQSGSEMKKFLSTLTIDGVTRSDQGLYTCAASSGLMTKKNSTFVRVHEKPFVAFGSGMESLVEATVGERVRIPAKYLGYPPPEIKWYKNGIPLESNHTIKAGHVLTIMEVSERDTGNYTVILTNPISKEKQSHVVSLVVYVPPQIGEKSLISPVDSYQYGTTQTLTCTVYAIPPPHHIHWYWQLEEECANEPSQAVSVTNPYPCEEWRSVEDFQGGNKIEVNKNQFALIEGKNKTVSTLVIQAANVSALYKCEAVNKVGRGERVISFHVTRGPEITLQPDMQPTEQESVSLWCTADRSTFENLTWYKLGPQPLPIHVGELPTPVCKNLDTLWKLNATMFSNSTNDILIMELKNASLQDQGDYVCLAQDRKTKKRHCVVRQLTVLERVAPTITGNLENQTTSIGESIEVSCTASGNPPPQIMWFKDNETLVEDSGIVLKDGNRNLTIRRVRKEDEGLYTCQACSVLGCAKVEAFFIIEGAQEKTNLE
Protocol: as §1

[3] = molecular target: mouse VEGFR-2 (Mus musculus, UniProt P35918); assay: ELISA-based specificity assay (Example 2A); format: binding; settings: FIG. 6D
Sequence of mouse VEGFR-2 (P35918 20-762 limits assumed): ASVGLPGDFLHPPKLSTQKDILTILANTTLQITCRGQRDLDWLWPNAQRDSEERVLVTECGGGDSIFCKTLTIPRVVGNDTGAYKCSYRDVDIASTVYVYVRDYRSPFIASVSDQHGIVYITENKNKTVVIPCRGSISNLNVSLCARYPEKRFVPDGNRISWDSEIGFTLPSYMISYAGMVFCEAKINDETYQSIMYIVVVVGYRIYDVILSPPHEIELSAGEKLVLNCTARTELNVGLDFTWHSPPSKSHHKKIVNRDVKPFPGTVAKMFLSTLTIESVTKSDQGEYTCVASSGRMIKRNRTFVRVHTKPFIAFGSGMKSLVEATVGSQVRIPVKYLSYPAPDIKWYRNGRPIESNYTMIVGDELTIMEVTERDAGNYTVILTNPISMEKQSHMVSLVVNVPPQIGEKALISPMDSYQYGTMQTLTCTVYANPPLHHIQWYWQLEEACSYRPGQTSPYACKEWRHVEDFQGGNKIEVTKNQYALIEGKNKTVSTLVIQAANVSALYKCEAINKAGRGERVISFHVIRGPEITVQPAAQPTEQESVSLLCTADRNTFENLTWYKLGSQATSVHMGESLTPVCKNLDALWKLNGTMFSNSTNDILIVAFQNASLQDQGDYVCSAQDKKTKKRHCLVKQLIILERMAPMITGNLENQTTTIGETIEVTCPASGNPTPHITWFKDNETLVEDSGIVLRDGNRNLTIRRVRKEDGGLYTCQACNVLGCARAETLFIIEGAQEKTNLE
Protocol: as §1

[4] = molecular target: T2, mouse VEGFR-I Fc (Mus musculus, UniProt P35969); assay: ELISA-based specificity assay (Example 2A); format: binding; settings: FIG. 6B
T2 sequence (P35969 23-759 limits assumed): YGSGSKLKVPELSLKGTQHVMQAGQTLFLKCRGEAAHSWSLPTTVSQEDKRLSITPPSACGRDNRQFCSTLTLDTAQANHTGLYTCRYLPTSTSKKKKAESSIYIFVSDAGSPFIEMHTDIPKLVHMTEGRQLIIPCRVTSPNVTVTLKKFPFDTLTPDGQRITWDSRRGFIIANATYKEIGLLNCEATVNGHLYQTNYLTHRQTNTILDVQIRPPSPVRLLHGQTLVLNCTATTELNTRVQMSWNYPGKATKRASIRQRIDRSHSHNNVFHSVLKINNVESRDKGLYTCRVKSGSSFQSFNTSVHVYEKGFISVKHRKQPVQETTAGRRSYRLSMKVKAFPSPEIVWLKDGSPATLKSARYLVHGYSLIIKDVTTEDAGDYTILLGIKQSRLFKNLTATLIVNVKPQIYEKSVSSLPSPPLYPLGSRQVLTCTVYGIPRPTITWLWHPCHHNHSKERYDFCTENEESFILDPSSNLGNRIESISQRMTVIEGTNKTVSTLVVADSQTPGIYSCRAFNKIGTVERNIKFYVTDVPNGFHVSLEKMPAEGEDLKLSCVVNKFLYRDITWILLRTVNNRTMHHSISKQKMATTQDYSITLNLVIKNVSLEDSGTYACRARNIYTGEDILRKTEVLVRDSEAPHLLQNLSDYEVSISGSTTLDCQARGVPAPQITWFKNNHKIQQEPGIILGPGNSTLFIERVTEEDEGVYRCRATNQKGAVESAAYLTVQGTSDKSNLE
Protocol: as §1

[5] = molecular target: T3, mouse VEGFR-I-AP (Mus musculus, UniProt P35969); assay: Plate-bound receptor binding ELISA (Example 2B); settings: FIG. 32B, 100 ng/well
T3 sequence (P35969 23-759 limits assumed): T2 sequence (P35969 23-759 limits assumed)
Protocol: (§2) HuVEGFR-I-Fc, mouse VEGFR-I-AP (hnClone Systems) or huVEGFR-2-AP (ImClone Systems) (100 ng/well) was coated on 96 strip-well plates and blocked with 5% milk/PBS. The binding of 18F1 and other anti-human VEGFR-I antibodies or a rat anti-mouse VEGFR-I antibody, MF1 (ImClone Systems, ref. 18), to plate bound VEGFR-I or VEGFR-2 was evaluated as described for the hybridoma supernatant screening above, except that bound antibody was detected with a goat anti-human kappa-HRP antibody (Bio Source International, Camarillo, Calif.) for 18F1 and anti-human VEGFR-2 antibody ICl 1. or a goat anti-rat IgG-HRP antibody (BioSource International) for MF1.

[6] = molecular target: T4, HuVEGFR-I-Fc (Homo sapiens, UniProt P17948); assay: Plate-bound receptor binding ELISA (Example 2B); settings: FIG. 32A, 100 ng/well
T4 construct: soluble recombinant VEGFR-I Fc (rhuVEGFR-1 Fc) proteins were purchased from (R&D Systems Inc); purchased R&D Systems Inc
T4 sequence (P17948 27-758 limits assumed): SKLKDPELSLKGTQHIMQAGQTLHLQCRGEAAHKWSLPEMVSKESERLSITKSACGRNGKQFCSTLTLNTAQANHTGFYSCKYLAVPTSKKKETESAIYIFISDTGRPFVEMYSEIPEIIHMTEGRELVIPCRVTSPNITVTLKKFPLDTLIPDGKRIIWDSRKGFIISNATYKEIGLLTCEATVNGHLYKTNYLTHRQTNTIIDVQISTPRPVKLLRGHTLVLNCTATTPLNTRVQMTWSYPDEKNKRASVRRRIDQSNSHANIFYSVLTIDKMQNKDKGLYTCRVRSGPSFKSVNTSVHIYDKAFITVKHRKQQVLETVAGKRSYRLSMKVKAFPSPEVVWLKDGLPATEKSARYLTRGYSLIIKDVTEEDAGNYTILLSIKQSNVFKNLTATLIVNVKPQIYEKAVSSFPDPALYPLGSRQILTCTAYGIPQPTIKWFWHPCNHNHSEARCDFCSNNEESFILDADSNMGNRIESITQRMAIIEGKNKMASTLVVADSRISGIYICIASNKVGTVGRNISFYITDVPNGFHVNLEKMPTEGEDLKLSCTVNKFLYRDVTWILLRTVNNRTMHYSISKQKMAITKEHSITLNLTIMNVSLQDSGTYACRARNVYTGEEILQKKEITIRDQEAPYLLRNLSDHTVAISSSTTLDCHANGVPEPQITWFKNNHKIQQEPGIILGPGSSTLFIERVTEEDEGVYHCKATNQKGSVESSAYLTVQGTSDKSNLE
Protocol: as §2

[7] = molecular target: huVEGFR-2-AP (Homo sapiens, UniProt P35968); assay: Plate-bound receptor binding ELISA (Example 2B); settings: FIG. 32C, 100 ng/well
Sequence of huVEGFR-2-AP (P35968 20-764 limits assumed): as the sequence (P35968 20-764 limits assumed) above
Protocol: as §2

[8] = molecular target: T5, native VEGFR-I on PAE-VEGFR-I cells (Homo sapiens, UniProt P17948); assay: Flow cytometry analysis, PAE-VEGFR-I cells; format: binding; settings: FIG. 7
T5 construct: host or cells: porcine aorta endothelial (PAE) cells
T5 sequence (P17948 27-1338): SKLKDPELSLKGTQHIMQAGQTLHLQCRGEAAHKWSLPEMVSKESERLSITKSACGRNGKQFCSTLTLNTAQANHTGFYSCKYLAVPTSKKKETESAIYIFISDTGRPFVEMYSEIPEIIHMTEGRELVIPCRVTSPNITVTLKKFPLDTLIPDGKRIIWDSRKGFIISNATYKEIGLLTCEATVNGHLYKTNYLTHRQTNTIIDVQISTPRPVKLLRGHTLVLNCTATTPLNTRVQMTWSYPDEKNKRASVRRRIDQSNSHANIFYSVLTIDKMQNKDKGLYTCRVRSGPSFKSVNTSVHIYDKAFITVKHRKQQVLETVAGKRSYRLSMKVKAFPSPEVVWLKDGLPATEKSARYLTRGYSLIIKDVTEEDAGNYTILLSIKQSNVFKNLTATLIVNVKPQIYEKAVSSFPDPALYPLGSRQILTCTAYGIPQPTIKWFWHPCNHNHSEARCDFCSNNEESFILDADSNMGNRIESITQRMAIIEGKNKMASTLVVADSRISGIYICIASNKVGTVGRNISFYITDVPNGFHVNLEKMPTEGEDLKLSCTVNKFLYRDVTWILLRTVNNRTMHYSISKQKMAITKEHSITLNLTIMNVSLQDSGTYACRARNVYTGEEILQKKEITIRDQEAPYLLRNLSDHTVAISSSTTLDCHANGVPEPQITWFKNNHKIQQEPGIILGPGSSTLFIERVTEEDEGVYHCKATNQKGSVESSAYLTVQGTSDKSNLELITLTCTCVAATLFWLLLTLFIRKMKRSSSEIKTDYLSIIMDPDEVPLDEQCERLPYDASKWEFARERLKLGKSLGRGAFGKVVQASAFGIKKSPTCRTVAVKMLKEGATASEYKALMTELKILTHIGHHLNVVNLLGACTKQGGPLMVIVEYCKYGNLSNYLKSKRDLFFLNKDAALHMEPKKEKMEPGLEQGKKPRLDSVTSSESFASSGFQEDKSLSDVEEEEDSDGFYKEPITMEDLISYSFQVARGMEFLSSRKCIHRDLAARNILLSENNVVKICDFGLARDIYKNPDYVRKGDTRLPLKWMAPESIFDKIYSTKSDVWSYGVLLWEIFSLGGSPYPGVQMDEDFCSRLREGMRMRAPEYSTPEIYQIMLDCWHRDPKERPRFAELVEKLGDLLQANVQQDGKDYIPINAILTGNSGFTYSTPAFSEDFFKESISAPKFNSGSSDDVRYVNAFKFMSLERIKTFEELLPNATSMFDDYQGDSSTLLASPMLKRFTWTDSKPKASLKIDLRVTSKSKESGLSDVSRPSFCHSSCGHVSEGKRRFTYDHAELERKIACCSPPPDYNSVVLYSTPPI
Protocol: Aliquots of 10^6PAE-VEGFR-I cells were harvested from subconfluent cultures and incubated with anti-VEGFR-I antibody clones 6F9, 13G12, F11, and 18F1 in PBS with 1% bovine serum albumin (BSA) and 0.02% sodium azide (staining buffer) for one hour on ice. Aliquots of 10^6DU4475 human breast carcinoma cells were harvested from subconfluent cultures and incubated with anti-VEGFR-1 antibody clone 18F1 in PBS with 1% bovine serum albumin (BSA) and 0.02% sodium azide (staining buffer) for one hour on ice. A matched IgG isotype (Jackson ImmunoResearch, West Grove, Pa.) was used as a negative control. Cells were washed twice with flow buffer and then incubated with a fluorescein isothiocyanate (FITC)-labeled goat anti-human IgG antibody (BioSource International, Camarillo, Calif.) in staining buffer for 30 minutes on ice. Cells were washed as above and analyzed on an Epics XL flow cytometer (Beckman-Coulter, Hialeah, Fla.). Dead cells and debris were eliminated from the analysis on the basis of forward and sideways light scatter. The mean fluorescent intensity units (MFRJ) were calculated as the mean log fluorescence multiplied by the percentage of positive population.

T1 sequence (P17948 27-758 limits assumed): as the sequence (P17948 27-758 limits assumed) above

18F1: human anti-VEGFR-1 monoclonal antibody clone; VL SEQ ID NO: 16, VH SEQ ID NO: 20 [Clone 18F1]
binding specificity to human VEGFR-I [1]: binding of human VEGFR-I | cross reactivity with human VEGFR-2 [2]: no cross reactivity | cross reactivity with mouse VEGFR-2 [3]: no cross reactivity | cross reactivity with mouse VEGFR-I [4]: no cross reactivity | reactivity with mouse VEGFR-I [5]: no cross reactivity | reactivity with human VEGFR-I [6]: specific reactivity | reactivity with human VEGFR-2 [7]: no cross reactivity | binding reactivity with PAE-VEGFR-I expressing cells [8]: binding reactivity
